These results are taken from paper PMC3664827.

The subject of this data set is Lsr2 (Mycobacterium tuberculosis). As to the kind of experiment: magnetic tweezers.

By Kd is commonly meant the free concentration of one partner at which half of the binding sites on the other are occupied at equilibrium, for simple one-to-one binding.

For the substance lambda DNA 48,502 bp, the Kd turned out to be 0.0575 µM.
